According to publication PMC8134430:

Target: Recombinant pseudopilin domain of Naegleria gruberi GspG1 (NgGspG1) lacking the N-terminal hydrophobic part (Naegleria gruberi)
Experiment: MST; Monolith NT.115; 10 nM protein labelled with Red-NHS dye NT-647, unlabelled protein titrated to 50 uM; 50 mM HEPES, 50 mM NaCl

Substance: Recombinant pseudopilin domain of Naegleria gruberi GspG1 (NgGspG1) lacking the N-terminal hydrophobic part (domain or fragment)
- Kd: 216 nM
